What was measured:
[1] = system: human foreskin fibroblasts; experiment: Mitogenicity for fibroblasts ([3H]thymidine incorporation); format: cell-based; conditions: 3, 10 or 30 ng/ml, 24 hours
Procedure: The assay was performed essentially as described in Mori et al., J. Biol. Chem., 1991 266:21158-21164. Serum starved human foreskin fibroblasts were incubated for 24 hours with 1 ml of serum-free medium supplemented with 1 mg/ml BSA and 3 ng/ml, 10 ng/ml or 30 ng/ml of full length PDGF-CC (flPDGF-CC), truncated PDGF-CC (cPDGF-CC) or PDGF-AA in the presence of […] [3H]thymidine. After trichloroacetic acid (TCA) precipitation, the incorporation of [3H]thymidine into DNA was determined using a beta-counter. […] PDGF-AA is included in the experiment as a control.

PDGFR-α = PDGFR-α expression in gastrocnemius muscle by RNAse protection analysis; format: in vivo, mouse; conditions: 4.5 μg daily, day 2 after ligation, compared to vehicle
Procedure: RNase protection analysis (RPA) was performed according to the manufacturer's protocol (Ambion) to investigate gene expression at mRNA level. Riboprobes were prepared using RNA polymerase (Promega) and ^32P-UTP (Amersham). Mouse β-actin cDNA (250 bp, Ambion) was used as an internal control. For Western blot assay, subconfluent cells were rinsed with cold PBS supplemented with 5 µg/ml of antiprotease cocktail, lysed in RIPA buffer and analyzed on 10% acrylamide SDS PAGE in reducing condition. […] The precipitants were analysed on SDS-PAGE, and immunoblotted using a monoclonal anti-phosphotyrosine antibody (Santa Cruz).
To further verify the angio/arteriogenic activity of PDGF-CC in vivo, the effect of PDGF-CC in an established mouse model of hind limb ischemia is investigated (Luttun et al., Nat Med, 2002 1:1). PDGFR-α expression was quantified by RNAse protection analysis in the gastrocnemius muscle, which becomes highly ischemic after ligation of the femoral artery (Deindl et al., Circ Res, 2001 89:779-86; Couffinhal et al., American Journal of Pathology, 1998 152:1667-1679). […] Revascularization of the ischemic gastrocnemius muscle, which only occurred in those regions where regenerating muscle replaced the necrotic avascular muscle, was scored after continuous delivery, by osmotic minipump, of 4.5 μg PDGF-CC per day for one week after femoral artery ligation. […]

[2] = system: human microvascular endothelial cells (HMVEC); experiment: Cell migration assay, HMVEC; format: cell-based; conditions: wounded monolayer, 20 hours, serum-free medium
Procedure: (§1) Cell migration assays were performed on growth arrested confluent HMVEC, BAEC or hSMC cells. Cell monolayers were wounded with a rubber policeman and washed with serum-free medium. Dishes were then incubated for 20 hours in serum-free medium containing VEGF165, PDGF-AA, (R&D Systems, Minneapolis USA) or PDGF-CC. Each assay included two dishes per condition and was repeated three times independently. Cells were photographed at 40× magnification, and migration percentage corresponding to the ratio between area of the cells and the total area of the wound (Biocom visiol@b 2000 version 4.52, San Diego). For HMVEC proliferation assay, cells were seeded in 96-well plates (5 wells per condition), and incubated with VEGF, PDGF-AA, or PDGF-CC (50 ng/ml) after serum starvation. After 7 days, viable cells were counted using the cell Titer-glo luminescent cell viability assay. For NIH-3T3 and hSMC proliferation assay, cells cultured in 96-well plates were serum-starved overnight, followed by treatment with growth factors at different concentrations. Two days later, cell numbers were counted and proliferation percentage calculated, using cells cultured in medium containing 10% serum as control. Aortic ring assay was performed as described 51. […] Aortic rings were analysed at day 9 of culturing. […]

[3] = system: bovine aorta endothelial cells (BAEC); experiment: Cell migration assay, BAEC; format: cell-based; conditions: wounded monolayer, 20 hours, serum-free medium
Procedure: as §1

B1: PDGF-CC: recombinant human PDGF-CC core domain homodimer, residues 230-345 of full-length PDGF-C (SEQ ID NO:40), produced in baculovirus infected insect cells (protein)
chain: GRKSRVVDLNLLTEEVRLYSCTPRNFSVSIREELKRTDTIFWPGCLLVKRCGGNCACCLHNCNECQCVPSKVTKKYHEVLQLRPKTGVRGLHKSLTDVALEHHEECDCVCRGSTGG
modifications: homodimer; PDGF-C core domain
mitogenic activity on fibroblasts [1]: potent mitogen
PDGFR-α expression in gastrocnemius muscle (PDGFR-α): almost completely restored
migration of HMVECs [2]: stimulated
migration of BAEC [3]: enhanced
